The record followed here is article PMC11731451, “Phosphorylation of Lamin A/C regulates the structural integrity of the nuclear envelope” (The Journal of Biological Chemistry, 2024).

This experiment deals with T1, GST-tagged Lamin A-C178 (250-428 aa), wild type (UniProt P02545 250-428).
T1 construct: Lamin A, fragment C178, residues 250-428; also called Lamin-A-C178-WT
T1 sequence (looked up): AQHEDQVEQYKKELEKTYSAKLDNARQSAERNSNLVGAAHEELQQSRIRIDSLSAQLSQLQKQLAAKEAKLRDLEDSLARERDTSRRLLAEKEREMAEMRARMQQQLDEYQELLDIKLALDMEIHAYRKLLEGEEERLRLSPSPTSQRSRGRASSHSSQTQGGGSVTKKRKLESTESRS
The experiment is described as follows: pull-down; 10 ug GST-tagged protein on glutathione agarose beads incubated with 10 ug soluble recombinant protein; PBS with 0.1% Triton X-100, 4 C, 4 h; three washes; SDS-PAGE with Coomassie staining; salt concentration also varied (Fig. S4B). The following applies: both partners purified.

B1: His-tagged Lamin A-N125 (1-125 aa), wild type (domain or fragment, UniProt P02545 1-125, looked up)
chain: METPSQRRATRSGAQASSTPLSPTRITRLQEKEDLQELNDRLAVYIDRVRSLETENAGLRLRITESEEVVSREVSGIKAAYEAELGDARKTLDSVAKERARLQLELSKVREEFKELKARNTKKEG
notes: The cell work is in human HeLa cells; also called Lamin A-N125-WT; source: E. coli BL21, purified (Ni-NTA agarose, dialysed)
As for B1, the binding result is “binds”.
